Here are results for 2 substances from paper PMC3785227.

Broadly, the Kd is the free concentration of one partner at which half of the binding sites on the other are occupied at equilibrium, for simple one-to-one binding.

The target of the assay is stripped core gp120 (HIV strain YU2), displayed on yeast (HIV-1 strain YU2). The assay is described as follows: flow cytometry on cells. (In flow cytometry, cells or beads pass a laser one at a time.)

In the case of “b13, non-neutralizing CD4 binding site-directed anti-gp120 antibody”, the dissociation constant (Kd) was 900 pM.
As for “b12, broadly neutralizing anti-gp120 antibody against the CD4 binding site”, the figure is 41 pM.
